# Test: yeast display, Sf9 membrane polyspecificity reagent, FACS + sequencing; frameworks hold sequencing errors
# In short: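 Polyreactivity labels are assigned by the sorting gate from which each nanobody was recovered. The gates were low and high (top ~1%), set on anti-HA fluorescence for expression and streptavidin fluorescence for reagent binding. Before sorting, galactose-induced (36–48 hours) yeast display cells were stained for 1 hour at 4 °C with 10% biotinylated, detergent-solubilized Sf9 membrane reagent.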
row,Sequence,polyreactivity (PSR sort gate)
1,QVQLEESWGGLVQAGGSLRLSCAASGSIYWEYAMGWYTPAPGKEREFVATISARGGRTYYADSVKGRFTISRDNAKNTVYLQMNSLKPEDTAVYYCANVGVFHLRDNYRFDFWGQGTQVTVSS,low polyreactivity
2,QVQLEETGGGLLQAGGSLRLSSAASGRTFVNYAMGWYRQAPGKEREFVAAIDRRSGSTYYADSVKGRFTISRDNAKNTVYLQMTSLKPEDTAVDYCAASPYIYDSWGQGTQVTVSS,low polyreactivity
3,QVQLGDSGGGLVHAGGSLSLSCAASGSTFAYYSMGWYRQAPGKERELVAGFTWTGGSTYYADSVKGRFTISRDNAKNTVYFQKNSLKPEDTAVYFCAVTYPYGYEYDHWGQGSQVTVSS,low polyreactivity
4,QVQLGDSGGGLVQAGGSLRLSCAASGFSIFTYAMGWYRQAPGKERELVAAITTGGSTNYADSVKGRFTISRDNAKNTVYLKMNSLKPEDTALYYCAALRVSVILLVRLDYWGQGTQVTVSS,low polyreactivity
5,QVQLGDSGGGLVQAGGSLRLSCAASGRIFGVYAMGWYRQAPGKERELVAAISRNGGSTYYADSVKGRFTISRDNAKNTVYLQMNSLKPEDTAVYYCATGGGVEAAGAYWGQGTQVTVSS,low polyreactivity
6,QVQLGESGAGLVQAGGSLRLSCAASGRTFYRYAMGWYRQAPGKERELVAAISSSGGRTYYADSVKGRFTISRDNAKNTVYLQMNSLKPEDTAVYYCAKSGYHSLVLWIEDYWGQGTQVTVSS,low polyreactivity
7,QVQLGESGAGLVQAGGSLRLSCAASGRTLRKYAMGLYTQAPGKERELVAAITTSGGSKYYADSVKGRFTISRDNAKNTVYLPMNSLKPEDTAVYYCAKCGYSGYHSSYDYWGQGTQVTVSS,high polyreactivity
8,QVQLGESGGGFFKAGASLRVICAASGRTFRRNAKGWYRQSPGTERELVAAITCGGSTNYADSVKGRFTISRDNENNTVYLQMNSLKPEDTAVYYCNADSVWGWYTYDYWGQGTQVTVSS,high polyreactivity
9,QVQLGESGGGIVQAGGSLRLSCAASGFIIRYNAMGWYRQAPGKERQFVAAISWGGGRTYYADSVKGRFTISRDNAKNTVYLQMNSLKPEDTAVYFCAAVSPHNRYGYKYDYWGQGTQVTVSS,high polyreactivity
10,QVQLGESGGGLVQAGGSLGLSCAASGGTLRVNTMGWYRQAPGKERELVAAISTRSGRTYYADSVKGRFTISRDNAKYTVYLQMNSLKPEDTAVYYCAATLYRRRSAFDGDWGQGTQVTVSS,high polyreactivity
11,QVQLGESGGGLVQAGGSLRLICAASGSIFDVNAMGWYRQAPGKERELVAAISDSGGSTYYADSVKGRFTISRDNAKNTVYLQMNSLKPEDTAVYYCNADWSWYNYDDFDYWGQGTQVTVSS,low polyreactivity
12,QVQLGESGGGLVQAGGSLRLICAASGSTFYYNAMGWSRQAPGKEWELVAAITYSGGDTYYADSVKGRFTMSRDNAKNTVYLQMNSLKPEDTAVYYCAAEYYWYNVYTGHLWYDYWGQGTQVTVSS,high polyreactivity
13,QVQLGESGGGLVQAGGSLRLRCAASGYILWNAMGWYRQAPGKERELVAAIRFRGGSTSYADSVKGRFTISRDNAKNTVYLQMNSLKPEDTAVYYCNARWWVIRPYQRHDYWGQGTQVTVSS,low polyreactivity
14,QVQLGESGGGLVQAGGSLRLSCAASGFIFCYYAMGWYRQAPVKERELVAAITSGGRTYYSESVKGRFTISLDNAKNTFYLQMNSMKPEDTSVYYCNVVLRSVVSGDYWGQGTQVTVSS,high polyreactivity
15,QVQLGESGGGLVQAGGSLRLSCAASGFIFEHYARGWYRQAPGTDTEFVARISWGGGSTYYADSVKGRFTISRDNAKNTVYLQMNSLKPEDTAVYYCHALEGVYFGYYPSDYWGQGTQVTVAS,low polyreactivity
16,QVQLGESGGGLVQAGGSLRLSCAASGFSFWYYPMGWYRQAPGKERELVASIRYSGDSTSYADSVKGRFTISRDNAKNNVYFQMNSLKAEDTEVYYSAAVRYWYASYYTYEYWGQGTQVSVSS,high polyreactivity
17,QVQLGESGGGLVQAGGSLRLSCAASGFTFYGNAMGWYRQAPGKERELVAAITYSGGRTYYADSVKGRFTISRDNAKNTVYLQMNSLKPEDTAVYYCARRRGYGQYDYWGQGTQVTVSS,high polyreactivity
18,QVQLGESGGGLVQAGGSLRLSCAASGFTFYNYAMGWYRQAPGKERELVAAISTSGGSTYYADSVKGRFTISRDNAKNTVYLQMNSLKPEDTAVYYCAAQATAYSYAYYYWGQGTQVTVSS,low polyreactivity
19,QVQLGESGGGLVQAGGSLRLSCAASGIIFISYDMGWYRQAPWKERELVARINWDGGSTYYADSVKGRFTISRDNAKNTVYLQMNSLKPEDTAVYYCAAGFVGTNYPLQGFSYEYWGQGTQVTVSS,low polyreactivity
20,QVQLGESGGGLVQAGGSLRLSCAASGITFTHYVMGLYRQAPGKERELVAAISTSGGRTYYADSVKGRFTISRDHAKNSVYLQMNSLKPEDTAVYYCAAVSRAPGLRYDYWGQGTQVTVSS,high polyreactivity

# Reference: the nanobody polyreactivity screen of Harvey et al. (2022)
